In patent US10208121B2, “Anti-Axl antagonistic antibodies” (BERGEN TEKNOLOGIOVERFORING AS, priority 2014, dated 2019):
Entries after “also recorded” stand apart in the source; their conditions may differ.

T1: human Tyro3 (rhTyro3/Dtk-Fc chimera) (Homo sapiens, UniProt Q06418)
T1 construct: Soluble recombinant antigens corresponding to the extracellular domains of members of the human TAM receptor family; purchased R&D Systems 859-DK
T1 sequence (Q06418 41-429 limits assumed): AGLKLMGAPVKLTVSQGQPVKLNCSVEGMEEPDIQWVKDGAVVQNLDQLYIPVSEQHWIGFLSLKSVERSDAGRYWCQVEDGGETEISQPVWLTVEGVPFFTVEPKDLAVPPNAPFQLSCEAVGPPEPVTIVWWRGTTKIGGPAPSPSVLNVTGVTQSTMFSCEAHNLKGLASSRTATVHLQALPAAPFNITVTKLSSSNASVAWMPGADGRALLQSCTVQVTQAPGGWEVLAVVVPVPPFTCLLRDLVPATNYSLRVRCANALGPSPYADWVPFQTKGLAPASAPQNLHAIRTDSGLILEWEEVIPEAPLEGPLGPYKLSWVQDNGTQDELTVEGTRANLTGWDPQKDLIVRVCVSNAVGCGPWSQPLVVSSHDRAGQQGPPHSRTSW

T2: Mer (rhMer-Fc chimera) (Homo sapiens, UniProt Q12866)
T2 construct: Soluble recombinant antigens corresponding to the extracellular domains of members of the human TAM receptor family; purchased R&D Systems 891-MR
T2 sequence (Q12866 21-505 limits assumed): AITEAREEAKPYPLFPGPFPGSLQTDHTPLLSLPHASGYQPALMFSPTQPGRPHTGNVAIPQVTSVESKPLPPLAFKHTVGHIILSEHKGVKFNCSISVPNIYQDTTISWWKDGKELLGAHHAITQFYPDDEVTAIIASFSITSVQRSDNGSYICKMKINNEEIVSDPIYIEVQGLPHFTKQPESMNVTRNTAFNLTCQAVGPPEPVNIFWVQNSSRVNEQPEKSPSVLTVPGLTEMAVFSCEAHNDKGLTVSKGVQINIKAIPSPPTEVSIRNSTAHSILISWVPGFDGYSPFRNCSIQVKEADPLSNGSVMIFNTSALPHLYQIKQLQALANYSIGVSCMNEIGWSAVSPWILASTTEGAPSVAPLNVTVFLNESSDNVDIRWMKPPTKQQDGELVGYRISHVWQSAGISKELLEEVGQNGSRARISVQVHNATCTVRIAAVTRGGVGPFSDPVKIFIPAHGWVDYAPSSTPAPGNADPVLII

B1: 10C9: mouse anti-Axl monoclonal antibody from hybridoma UT-10C9-B9, IgG2b; VH SEQ ID NO: 3, VL SEQ ID NO: 4 (antibody, listed as Mus musculus, V domains shown)
VH: QVQLQQPGPELVKPGASVKISCKTSDYNFTRYYIHWVKQRPGQGLEWIGWIYPGTGDSKYNEKFKGRATLTADTSSSTAYMQLSSQTSEDSAVYFCARNGNYWYFDVWGAGTAVTVSS
VL: DIVMTQAAPSGPVTPGESVSISCRSSKSLLHSNGNTYLYWFLQRPGQSPQLLIYRMSNLASGVPDRFSGSGSGTAFTLRISRVEAEDVGIYYCMQHREYPFTFGGGTKLEIK
B2: 10G5: mouse anti-Axl monoclonal antibody from hybridoma WR-10G5-E5, IgG1; VH SEQ ID NO: 21, VL SEQ ID NO: 22 (antibody, listed as Mus musculus, V domains shown)
VH: QVQLQQSGAELVRPGASVKLSCKASGYSFTDFYINWVRQRPGQGLEWIARIFPGGDNTYYNEKFKGKATLTAEESSSTAYIQLSSLTSEDSAVYFCARRGLYYAMDYWGQGISVTVSS
VL: DVLMTQTPLSLPVSLGDQASISCRSSQSLVHSNGIPYLHWYLQKPGQSPKLLIYRVSNRFSGVPDRFSGSGSGTDFTLKISRVEAEDLGVYFCSQGTHVPPTFGGGTKLEIK

What was measured:
[1] = target: T1, human Tyro3 (rhTyro3/Dtk-Fc chimera); assay: Biacore binding analysis on immobilized human Tyro3; settings: 10 μg/mL, 25° C.
Method: (§1) All binding experiments were performed using Biacore 3000 instrument (GE Healthcare) at 25° C. Soluble recombinant antigens corresponding to the extracellular domains of members of the human TAM receptor family, Axl (rhAxl-Fc chimera; R&D Systems, Cat. no. 154-AL), Mer (rhMer-Fc chimera; R&D Systems, Cat. no. 891-MR) and Tyro3 (rhTyro3/Dtk-Fc chimera; R&D Systems, Cat. no. 859-DK) were immobilized on the surface of CM5 sensor chip using amine coupling at the surface density of 393.0, 303.6 and 364.0 resonance units (RU), respectively. The Biacore run was performed in an automatic mode using Binding analysis wizard. Samples containing either MAb 10C9 or MAb 10G5 at concentration 10 μg/mL in HBS-EP buffer (GE Healthcare) were injected over the surfaces with immobilized antigens at flow rate of 30 μL/min for 3 min (association) followed by 5 min dissociation.
(§2) The binding experiments were performed using Biacore 3000 instrument (GE Healthcare) at 25° C. The soluble recombinant antigens corresponding to human Axl (rhAxl-Fc chimera; R&D Systems, Cat. no. 154-AL), mouse Axl (rmAxl-Fc chimera; R&D Systems, R&D Systems; Cat. no. 854-AX) and human Tyro3 (rhTyro3/Dtk-Fc chimera; R&D Systems, Cat. no. 859-DK) were immobilized on the surface of CM5 sensor chip using amine coupling at the surface density of 1,308.0, 2,115.9 and 1,429.0 RU, respectively. The Biacore runs were performed in an automatic mode using Binding analysis wizard.
(§3) The sample containing either MAb 10C9, MAb 10G5 or recombinant mouse (rm) Axl-ligand Gas6 (R&D Systems, Cat. no. 986-GS/CF) at concentration 10 μg/mL in HBS-EP buffer (GE Healthcare) was injected over the surfaces with immobilized antigens at flow rate of 30 μL/min for 3 min (association) followed by 5 min dissociation.

[2] = system: cyno-Axl (Axl receptor from cynomolgus monkey); assay: Biacore binding analysis on immobilized cyno-Axl; design: species or system Macaca fascicularis; settings: 10 μg/mL, 25° C.
Method: The sequence of Axl receptor from cynomolgus monkey (Macaca fascicularis; SEQ ID NO.43) was retrieved from WO2009062690A1. Based on the sequence, recombinant extracellular domain of cyno-Axl was generated by transient expression in CHO cells as a fusion protein with human Fc. The recombinant cyno-Axl-Fc was purified to homogeneity using Protein A-Sepharose (GE Healthcare). The binding experiments were performed using Biacore 3000 instrument (GE Healthcare) at 25° C. The soluble recombinant antigens corresponding to human Axl (rhAxl-Fc chimera; R&D Systems, Cat. no. 154-AL) and cyno-Axl were immobilized on the surface of CM5 sensor chip using amine coupling at the surface density of 775 and 880 RU, respectively. The Biacore runs were performed in an automatic mode using Binding analysis wizard.
The sample containing either MAb 10C9, MAb 10G5 or human Axl-specific MAb 5F11 (control) at concentration 10 μg/mL in HBS-EP buffer (GE Healthcare) was injected over the surfaces with immobilized antigens at flow rate of 30 μL/min for 3 min (association) followed by 5 min dissociation.

Mer (rhMer-Fc chimera) = target: T2, Mer (rhMer-Fc chimera); assay: Biacore binding analysis on immobilized human Mer; settings: 10 μg/mL, 25° C.
Method: as §1

Axl^+ cells = assay: Flow cytometry binding of hybridoma antibody clones to Axl+ cells; assay type: cell-based; settings: hybridoma clone selection
Method: For flow cytometry, the adherent cells in culture were washed with PBS, detached by trypsin (0.25%) treatment for 1 min and hitting culture dish for full detachment. Trypsin was quenched by adding into the tissue flask the complete medium followed by washing the cells with PBS. During the washing steps, the cells were collected by centrifugation at 200 g for 5 min. The antibody was diluted for total concentration in PBS containing 0.02% bovine serum albumin (BSA).
Cell staining was performed using 200 μL of cell suspension comprising 10^5 cells for 20 min at room temperature. After two washing steps with PBS/0.02% BSA, the cells were resuspended in 200 μL incubated with an APC-conjugated donkey anti-mouse IgG (H+L) secondary antibody (Jackson Laboratories, Cat. no. 715-136-150) at concentration 2 μg/mL for 20 min at room temperature. The stained cells were washed twice with PBS/0.02% BSA and kept on ice before analysis using a BD LSR Fortessa cell analyzer (BD Biosciences).

[3] = target: T3, mouse Axl (rmAxl-Fc chimera) (Mus musculus, UniProt Q00993); assay: Biacore binding analysis on immobilized mouse Axl; settings: 10 μg/mL, 25° C.
T3 construct: The soluble recombinant antigens corresponding to human Axl (rhAxl-Fc chimera; R&D Systems, Cat. no; 154-AL), mouse Axl (rmAxl-Fc chimera; purchased R&D Systems 854-AX
Method: as §2, §3

Chain of cyno-Axl (Axl receptor from cynomolgus monkey) (as listed by the source): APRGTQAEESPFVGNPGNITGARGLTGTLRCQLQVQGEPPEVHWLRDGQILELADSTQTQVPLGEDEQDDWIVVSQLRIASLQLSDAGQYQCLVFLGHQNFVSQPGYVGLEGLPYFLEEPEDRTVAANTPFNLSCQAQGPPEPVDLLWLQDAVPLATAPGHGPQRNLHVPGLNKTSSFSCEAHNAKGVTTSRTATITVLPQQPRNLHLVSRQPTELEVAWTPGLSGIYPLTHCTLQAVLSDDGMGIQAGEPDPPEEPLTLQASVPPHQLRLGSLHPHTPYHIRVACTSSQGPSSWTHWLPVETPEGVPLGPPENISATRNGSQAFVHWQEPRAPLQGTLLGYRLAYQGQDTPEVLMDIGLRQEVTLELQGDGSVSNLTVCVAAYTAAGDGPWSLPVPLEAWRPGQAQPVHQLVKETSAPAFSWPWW
T3 sequence (Q00993 19-445 limits assumed, change not shown): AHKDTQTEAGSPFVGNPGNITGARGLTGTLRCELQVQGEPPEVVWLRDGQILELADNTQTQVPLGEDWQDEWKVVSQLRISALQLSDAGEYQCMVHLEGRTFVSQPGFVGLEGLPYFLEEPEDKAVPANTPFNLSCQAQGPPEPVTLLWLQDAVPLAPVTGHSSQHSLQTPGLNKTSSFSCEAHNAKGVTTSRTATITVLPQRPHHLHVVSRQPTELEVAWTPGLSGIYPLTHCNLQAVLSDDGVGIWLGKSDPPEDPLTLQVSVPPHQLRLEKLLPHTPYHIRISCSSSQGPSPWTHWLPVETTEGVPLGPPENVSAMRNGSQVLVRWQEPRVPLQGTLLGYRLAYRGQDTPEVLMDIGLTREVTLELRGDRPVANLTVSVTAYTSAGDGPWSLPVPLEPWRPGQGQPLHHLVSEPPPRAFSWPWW

Row | Molecule | binding to human Tyro3 [1] | binding to human Tyro3 ([1]; listed as 1009) | binding to Axl from cynomolgus monkey [2] | binding to Axl from cynomolgus monkey ([2]; listed as 1009) | binding to human Mer (Mer (rhMer-Fc chimera)) | binding to human Mer (Mer (rhMer-Fc chimera); listed as 1009) | binding to Axl^+ cells in flow cytometry (Axl^+ cells) | binding to mouse Axl [3]
1 | B1 | no binding | no significant binding | strong and specific interaction | bind strongly | no binding | no significant binding | specific binding | no binding
2 | B2 | no significant binding | – | bind strongly; also recorded: strong and specific interaction | – | no significant binding | – | specific binding | no binding
